Assay: soluble on expression in E. coli; label from the status in PepcDB or PDB records
In the case of “MTNSIRIGTRKSPLALIHTNLVIQQIKQFFPDINCEIVPIITSGDLIQNKPLYDIGGKALFLKEIEQALLDKKIDLAVHSLKDVPGRMPEPLVIAAVLEREDPRDVFVCLKYKSIEELPQNAVIGSSAVRRKAFIQKIRPDLKVTVFRGNVDSRIKKLMTGEVDATILAYTGLKRLEVFNPEYCHLIEYSQMLPCIGQGVIAVEIRKDDNAMLEICNQINHLPTFELIKPERAFLEYLDANCRTPIAAYSQYLDANPRHLSKLAYREVLEGNTEALATAAYKSNRTDASTGLTYKLPLEVEFGKVSNIQTNFMLGNLDGSKITFHTETTNIKTSTEAGIKAAKMMLEAICK”, the “soluble on expression in E. coli” value is reported as “soluble”. With “MTNSQTVSLIGPTQMAPQSTPPPPVNELWFIDAQAMFQNYANLRSFSKSNANEINTTIGGFVFGRKARKQVIHVLFAYAEDLTESNRQFLESSLSADIELVGNLNIDGQSQILPGGQFTLQLTSRMLENRSISEFLDMNVMFNNEHVLMEGASCVSRVGYEWSLRAGREQEDVKSAAERLSMASFRFTYLNAEHGLVIREQKPEAAQQKYLDKFSKGAVPYKDVIEFTAMQSLTRDTSNDTEDQKLVPTVKVTKDNKHFTRLVTIGEVVFPAFFGDSSLDLYKRSREAFNRRANNTMMVTVNGIRAGRGVTTTTSATYLPPGWVSLLHLQLPTKWTDNEQRNYRIRLHKLFNLPSSKPVLRLSQALALHSESARLTNKKLIREPHLSITNYQPVGEITTVNGPYNYHHYMQDGIDDSGWGCAYRSFQTIWSWFILNGYTDKPVPSHREIQQALVDIQDKQAKFVGSRQWIGSTEISFVLNELLKLECRFIATNSGAEVVERVRELARHFETSGTPVMIGGNMLAHTILGVDFNDTTGETKFLVLDPHYTGSEDIKTITSKGWCAWKPASFWSKDHFYNMVLPQPPSDAI” the “soluble on expression in E. coli” value was “not soluble”. In the case of “MTPIPLINIPLCNLAGDGYILSEKSQSQNMLRGIVMSETVRVGLLGYGYASKTFHAPLIAGTAGMELVAVSSSNAEKVHADWANLRVEKDPQALFSDPDIDLIVIPTPNDTHFPLAKQALEAGKHVVVDKPFTVTLSQAYDLGAIAERAGKVLSVFHNRRWDSDFLTLKQLLSAGTLGNVVYMESHFDRFRPEVRQRWREDGSEGSGIWYDLGPHLLDQALELFGLPVAIQVDMAQLRPGSKATDYFHATLIYPQRRVILHASMLVAAASARYTVHGTRGSFVKYGLDPQEDRLKAGERPPLADWGQDKHDGVLTLSRDGITAEQTIATIPGNYPAYYAAVRDALLGKGENPVGVNQAIQVMELIELGLLSHEQKKAVALKNSLEHHHHHH”, the “soluble on expression in E. coli” value is reported as “not soluble”. In the case of “MTPLVKDIIMSSTRMPALFLGHGSPMNVLEDNLYTRSWQKLGMTLPRPQAIVVVSAHWFTRGTGVTAMETPPTIHDFGGFPQALYDTHYPAPGSPALAQRLVELLAPIPVTLDKEAWGFDHGSWGVLIKMYPDADIPMVQLSIDSSKPAAWHFEMGRKLAALRDEGIMLVASGNVVHNLRTVKWHGDSSPYPWATSFNEYVKANLTWQGPVEQHPLVNYLDHEGGTLSNPTPEHYLPLLYVLGAWDGQEPITIPVEGIEMGSLSMLSVQIGLEHHHHHH”, the “soluble on expression in E. coli” value is reported as “soluble”. For “MTPPRMRISGENELVQALLEHGHVLVEASEAELIFDPTQLVRRGQIVAHLGHATLADLDAYSSGHAFVLTELMPQIYAVTASDELAGMVAELLISELGGRVVHVPESQRDRLTAGLACAGFIGQVRSEARNLLTEALGNAHHADEVVEQLTDAVAPPLNVAALERGYHAIDSVGTKRLYAQLARRSGEVFRNNDVELWAMNQEQNNT”, the “soluble on expression in E. coli” value was “not soluble”. With “MTQAIKRVGVTDVVLRDAHQSLFATRLRIDDMLPIAQQLDQIGYWSLECWGGATFDSCIRFLGEDPWQRLRLLKQAMPNTPLQMLLRGQNLLGYRHYADDVVDTFVERAVKNGMDVFRVFDAMNDVRNMQQALQAVKKMGAHAQGTLCYTTSPVHNLQTWVDVAQQLAELGVDSIALKDMAGILTPYAAEELVSTLKKQVDVELHLHCHSTAGLADMTLLKAIEAGVDRVDTAISSMSGTYGHPATESLVATLQGTGYDTGLDIAKLEQIAAYFRDVRKKYHAFEGMMKGSDARILVAQVPGGMLTNMESQLKQQNALDKLDLVLEEIPRVREELGFLPLVTPTSQIVGTQAVINVVLGERYKTITKETSGVLKGEYGKTPAPVNTELQARVLAGAEAITCRPADLIAAEMPTLQDRVLQQAKEQHITLAENAIDDVLTIALFDQVGWKFLANRHNLEHHHHHH” the “soluble on expression in E. coli” value was “soluble”. In the case of “MTQMKIFVIGAHGQIGKKIVSKLVAQGDQVYAGIRQPEQAEAFEDAGAQPVQFNLMAQPEDLALAFNGMDAIVFAAGSGGQTGYDMTLMIDLDGAVKSMVAAKIAGVKRYVIISAEFTPDRSRWPRALQPYYVAKYYADEWLKNRTQLDYTILQPGTLINDAGTGKVTVNPDVGGEITRDDVATFTVQTLHTPATVGKTIALINGDTPISKAVQQA”, the “soluble on expression in E. coli” value is reported as “not soluble”. For “MTQVIIDGDACPVTNSIIELTKGTGIFVTVVRSFSHFSTVIQPEHVNIIYVDDGPDAVDYRIVKLVHSDDLVVTQDYGLASLLLNKAKIVMHHKGFIYNQENINTLLEQRHASAQFRKSGLEHHHHHH”, the “soluble on expression in E. coli” value was “not soluble”. In the case of “MTRDEMRYMLETEGVLENEELEMLQGVFSLDTKVAREVMVPRTDAFMVDIQDDVQENINLILGENYSRIPVYSEDKDKIVGILHTKTLLKAARNLGFENIELGAIIQEPLFVPETIFIDDLLYELKRTQNQMAILLDEYGGVVGLATLEDLLEEIVGEID”, the “soluble on expression in E. coli” value is reported as “not soluble”. In the case of “MTRHQTHLPFHIVQEGNSIDKPPYSYVALIAMAIDASPDKRMTLNQIYKFIEAKFPYYRDADAKRKQGWQNSIRHNLSLNDCFVKKARDGQSCANDRKGNYWQMVADNAPQFDNGNFKRRRVKRLGIGKMGYANTTETTETGTILQQQLPFFNGLKWPQNIQTMDPFQFFKFQYPNSITDSANTSQINNSSSSSSSFDTSIYTSAFPIPTSHFDTNLVAPSQPPPVVSDVEVVPSDTVKEEVLVDMKPLIPGISSTTFLTSLQMTDPRSIEQQQLLSTASNMYPNAFMPPYTNWSCQPTTTFTGLSFDDPSLYGYGQQFPASS”, the “soluble on expression in E. coli” value is reported as “not soluble”. In the case of “MTRIAIVGAGPAGLSLAYFLKGSRKVEATVYESMPEPGLKPCAWGLITGIENIIPIPNETIISEIRGFRIYLDNKLVFDIRTDNKLGYIIDKPLFLKRLSQEVNVEFNSKVVKKDDKYYINDKSLDHDKVIFATGHYSVSKSMSIPAIQYITDYEIDKEVVEFYFYSGFLGYAWVFPDREGSKIGIGGYAEVPELKERLKQILKGRIRTFHGARVTDYGVIEDRLDGNYTGEALGTVYAITGEGIRPSIISSKILADSILNRKDFKKEFKKSKLYWSLNWHAKIIKMTKENDPGTARLSKALLNNDPQLILKFAIGEFNRVDLIKIFGRSLILEHHHHHH”, the “soluble on expression in E. coli” value is reported as “soluble”. With “MTRIISIVSGKGGTGKTTVTANLSVALGEMGRKVLAVDGDLTMANLSLVLGVDDVNITLHDVLAGDAKLEDAIYMTQFENVYILPGAVDWEHVIKADPRKLPEVIKSLKGKYDFILIDCPAGLQLRAMSAMLSGEEAILVTNPEISCLTDTMKVGMVLKKAGLAILGFILNRYGRSERDIPPEAAQDVMDVPLLAVIPEDPVIREGTLEGIPAVKYKPESKGAQAFIKLAEEVDKLAGIKAKI” the “soluble on expression in E. coli” value was “soluble”. For “MTRSVSHPPYADPFAHPPETSPQELTAQLTPGARFQDVRFENYRPNPEFPSQAQARDQLAEFVRQAGQKASGGGFWPFKRRAPEGRGFYLDGGFGVGKTHLLASAYHAAKGQSGGSGGDVAFMSFQDLMYLIGALGMPQAIETFRNYKLLLIDEFELDDPGNTHMANTFLGGLMPSGVSVVATSNTEPGALGAGRFNAEDFQRQIQGIADRFGPHRIDGPDYRQRGTEPAQPLSEAEFAAWLARQNPQTTALMTHAELNRALLSVHPSRFARVLEQVSGVAVTNLEPMPEQGEALRFVHFVDKVYDLGLSAAFTGVPLNALFDDIYRNGGYAKKYSRALSRLSEMLREARGLEHHHHHH”, the “soluble on expression in E. coli” value was “not soluble”. In the case of “MTRVLVLGGGSGGLVAANKVKRLLGKEVEVTLVDRNTHHEFMPAYPWVAFGMREPEAIRRPLANLEKRGIRYLQATVEALDPERNRVKTTAGELSYDYLIVSLGAEALPSPAQDGHAPWSLEGALKLREALRTFKGGKVVVGVSSPYYPCPPAPYEVAGQVEFALKVKGVRDKSTVEVFHLNPAPLAGMGPVISGKVLEILKSKGIAFHGGFEPVEFAGGKVKAKDGRELSYDLLILTPPFAPNRVVRESPLAGPQGFPEVDRMTFRSPRFPNVFVIGDTVNPALMLPPAGVVAHFQGEYVAGVIASDLKGAYIGEPFNPVAMCIMDFGDNALLPQCAFDRVLAGTGMPSCGVMAVGKWVRVTKMLFEGFWFATLIELEHHHHHH”, the “soluble on expression in E. coli” value is reported as “soluble”. In the case of “MTSAPMSNPSSTSSVVTAAMLAIGDELLSGRTKDKNIGHLADVLTMSGIDLKEVRIVADEEESIVEALNALRSRYDYVFTSGGIGPTHDDITADAISAAFGLPCEHDAEALRLLGDMYRVREMEFTEARKRMARMPKGAAHIANPVSVAPGFVIGNVYVMAGVPQVFQAMLDNVMPTLRTGAKVMSQAVRSPYGEGDIGTPLTAIQKAHPETSIGSYPKYDGQRFSTEIVVRARDAGLLKAATEAVAAMIEAIGQEKQLAASKGDATA”, the “soluble on expression in E. coli” value is reported as “not soluble”. For “MTSAWNEEWRRRRLPALAGQEWDLIVVGGGISGAGILREAARRGWRCLLLEQRDFAWGTSSRSSKMVHGGLRYIAKGQWRLTRDSVRERQRLLGEAPGLVEPLSFVMAHYRGGFPGPRLFGGLLSVYDALAGRRNHRFYDAAALRYLAPGLKEQRLLGGTRFFDAVTDDARLVLRVLAEARHDGGEAFNGMRVRELLREGGQVVGLRAEDRESGELFDFRCRALALATGAWADELRQPGGSEHIRPLRGSHLLLPAWRLPVAHAFSFMHATDRRPVFVFPWEGATVVGTTDLDHRDGLGEDARISRAELDYLLAACAQQFPAAAIEARDVLSTWAGVRPVVSSGDDSGKPSDEKREHVLWREPGCVTLAGGKLTTFRPLAVEVLQACAPLLGRTVTDDGAAVFGACEGPLIDGLGSGQRRRLAGRYGRDLVRLKRLVDTLGTDCVGASETLWAELAFAAEAEMVLHLDDLLLRRTRLGLLLPGGGAAYLPRIRALCQARLGWDDPRWEREQQAYLDLWRRHYSLPVLEHHHHHH”, the “soluble on expression in E. coli” value was “not soluble”. With “MTSEHRSASVTPRHISFFNIPGHGHVNPSLGIVQELVARGHRVSYAITDEFAAQVKAAGATPVVYDSILPKESNPEESWPEDQESAMGLFLDEAVRVLPQLEDAYADDRPDLIVYDIASWPAPVLGRKWDIPFVQLSPTFVAYEGFEEDVPAVQDPTADRGEEAAAPAGTGDAEEGAEAEDGLVRFFTRLSAFLEEHGVDTPATEFLIAPNRCIVALPRTFQIKGDTVGDNYTFVGPTYGDRSHQGTWEGPGDGRPVLLIALGSAFTDHLDFYRTCLSAVDGLDWHVVLSVGRFVDPADLGEVPPNVEVHQWVPQLDILTKASAFITHAGMGSTMEALSNAVPMVAVPQIAEQTMNAERIVELGLGRHIPRDQVTAEKLREAVLAVASDPGVAERLAAVRQEIREAGGARAAADILEGILAEAG” the “soluble on expression in E. coli” value was “soluble”.

From the DeepSol protein solubility set
